From patent US20200222503A1 come the findings set out here.

pKd: −log10 of the molar value.

Assay [1] deals with OX40-His (Example 11) (Mus musculus (Mouse)) (UniProt P47741). Description: SPR, BioRad ProteOn XPR 360, His-tagged target on chip.
In assay [2] the target is FcRn-His (Example 11) (Mus musculus (Mouse)) (UniProt Q61559). The assay is described as above.
In a further assay the target is FcRn. Description: SPR.
The next assay addresses FcγR1A. Description: SPR.
Assay [3] deals with PD-L2-His (Example 11) (Mus musculus (Mouse)) (UniProt Q9WUL5). Description: SPR, BioRad ProteOn XPR 360, His-tagged target on chip.
Chain of PD-L2-His (Example 11) (Mus musculus (Mouse)) (Q9WUL5 20-221 limits assumed, form in doubt): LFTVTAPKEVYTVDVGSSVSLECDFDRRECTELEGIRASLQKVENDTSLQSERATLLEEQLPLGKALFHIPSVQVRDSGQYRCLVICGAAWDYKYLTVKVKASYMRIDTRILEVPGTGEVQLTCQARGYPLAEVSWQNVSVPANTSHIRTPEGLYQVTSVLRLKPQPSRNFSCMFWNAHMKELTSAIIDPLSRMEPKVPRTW
The target in the next assay is mPD-L1-His (murine) (UniProt Q9EP73). The description is as above.
Chain of mPD-L1-His (murine) (Q9EP73 19-238 limits assumed): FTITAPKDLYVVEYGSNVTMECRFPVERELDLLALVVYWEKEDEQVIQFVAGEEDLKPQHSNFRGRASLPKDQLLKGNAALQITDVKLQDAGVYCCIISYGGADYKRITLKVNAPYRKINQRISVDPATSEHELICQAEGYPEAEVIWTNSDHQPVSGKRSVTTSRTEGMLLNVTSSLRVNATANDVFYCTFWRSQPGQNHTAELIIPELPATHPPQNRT

Chain of FcRn-His (Example 11) (Mus musculus (Mouse)) (Q61559 22-297 limits assumed, form in doubt, chain 1 of 2): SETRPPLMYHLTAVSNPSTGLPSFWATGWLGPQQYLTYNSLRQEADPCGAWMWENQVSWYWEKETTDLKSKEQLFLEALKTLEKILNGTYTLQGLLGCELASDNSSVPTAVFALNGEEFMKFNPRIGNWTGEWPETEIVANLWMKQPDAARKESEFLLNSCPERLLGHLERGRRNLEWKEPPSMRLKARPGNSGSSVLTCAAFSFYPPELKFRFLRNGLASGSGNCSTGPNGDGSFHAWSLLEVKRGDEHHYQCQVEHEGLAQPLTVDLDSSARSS
Chain of FcRn-His (Example 11) (Mus musculus (Mouse)) (beta, as listed by the source limits assumed, form in doubt, chain 2 of 2): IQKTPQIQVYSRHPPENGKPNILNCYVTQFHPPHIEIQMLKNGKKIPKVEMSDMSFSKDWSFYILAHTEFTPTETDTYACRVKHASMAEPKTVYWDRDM
Chain of OX40L-Fc (recombinant control protein, Example 11) (Fc fusion) (P43488 51-198): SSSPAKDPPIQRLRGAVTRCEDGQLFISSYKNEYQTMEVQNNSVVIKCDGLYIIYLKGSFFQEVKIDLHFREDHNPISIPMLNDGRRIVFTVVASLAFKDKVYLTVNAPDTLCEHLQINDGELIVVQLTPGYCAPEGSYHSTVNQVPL
Chain of OX40-His (Example 11) (Mus musculus (Mouse)) (P47741 20-211 limits assumed, form in doubt): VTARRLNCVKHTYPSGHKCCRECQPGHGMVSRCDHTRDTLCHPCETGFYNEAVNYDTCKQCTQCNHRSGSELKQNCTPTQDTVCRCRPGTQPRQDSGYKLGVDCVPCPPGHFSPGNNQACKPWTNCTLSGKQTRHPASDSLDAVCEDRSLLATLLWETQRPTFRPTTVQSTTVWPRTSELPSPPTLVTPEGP
Chain of PD1-Fc (recombinant control protein, Example 11) (Fc fusion) (Q02242 25-169): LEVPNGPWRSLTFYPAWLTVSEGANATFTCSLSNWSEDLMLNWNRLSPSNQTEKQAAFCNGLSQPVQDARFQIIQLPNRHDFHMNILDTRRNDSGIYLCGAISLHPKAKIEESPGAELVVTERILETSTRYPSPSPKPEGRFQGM

In assay [1], “OX40L-Fc (recombinant control protein, Example 11) (Fc fusion)” showed a negative logarithm of the Kd (pKd) of 8.97, a koff of 0.000712 s⁻¹ and a kon of 674000 M⁻¹ s⁻¹.
In the case of “IgG2A (control protein, Example 11) (antibody)”, in assay [2], the pKd is 8.09, the koff was 0.0242 s⁻¹ and the association rate constant (kon) worked out at 3e+06 M⁻¹ s⁻¹.
For the substance IgG1, the results for the pKd with FcRn and with FcγR1A were 8.31 and 7.75, respectively.
Turning to “PD1-Fc (recombinant control protein, Example 11) (Fc fusion)”, in assay [3], the negative logarithm of the Kd (pKd) is 7.64, the koff came to 0.00171 s⁻¹ and the association rate constant (kon) was found to be 47900 M⁻¹ s⁻¹. In the assay with mPD-L1-His (murine), the pKd was 7.48, the koff was found to be 0.00108 s⁻¹ and the kon was found to be 32400 M⁻¹ s⁻¹.
